# Source: the RNAGym collection of RNA variant scans (doi:10.7554/elife.80360)
# B1: HDV Ribozyme (parent)
# chain: GGCCGGCAUGGUCCCAGCCUCCUCGCUGGCGCCGGCUGGGCAACAUUCCGAGGGGACCGUCCCCUCGGUAAUGGCGAAUGGGACCCA
# Variants of: B1
# Experiment: self-cleavage, relative activity (ratio to wild type); higher = more cleavage; co-transcriptional
row,Variant,self-cleavage
1,C15A C86G,0.748
2,C15A C86U,0.831
3,C15A C21G,0
4,C15U C44U,0.707
5,C14G G68U,0.277
6,C14G G68C,0.383
7,C15G A16G,0.665
8,C15A C44U,0.426
9,C15A C44G,0.431
10,C15A A83C,0.196
11,C15U G76U,1.2
12,C14U C32A,0.101
13,A16C C18U,0.375
14,C15G C21A,0.0707
15,C15G C21G,0
16,C15G C21U,0.0405
17,C15G A70G,0.554
18,C14A G52C,0.782
19,C15A C75A,0.115
20,C15U C26A,1.05
21,C15G G59A,0.831
22,C15G G59C,0.767
23,C15G G55U,0.677
24,C14G G59U,0.745

row,Variant,self-cleavage
1,C14G G74C,0.0639
2,C14G G74U,0.128
3,C14U U69G,0.755
4,C14G C49U,0.529
5,C14G C49G,0.383
6,C15A G38A,0.0978
7,C14A G53U,0.848
8,C14A G53A,0.499
9,A16C A83G,0.877
10,C13U U23C,0.415
11,C14A A77C,0.115
12,C14A A51C,0.959
13,C14A G50A,0.736
14,C14A G50C,0.639
15,C14U A78C,0.237
16,C15G C57A,0.703
17,C14U A56G,1.16
18,C14A A42U,0.201
19,C14G C33A,0.151
20,C14U C15G,0.415
21,C14G G29U,0.0396
22,C14G G29C,0.0665
23,C15G A56G,0.712
24,C14U U37A,0.151

row,Variant,self-cleavage
1,C15G G73C,0.231
2,A16C C26U,0.886
3,A16C C26A,0.831
4,C15A G54A,0.504
5,C15A G54U,0.585
6,C14U A43C,0.364
7,C14G G52A,0.739
8,C14G G52C,0.519
9,C15G C58A,0.437
10,C14A U65A,0.811
11,C14U C33U,0.975
12,C15A G29A,0.117
13,C15G G68C,0.511
14,C14U G55A,1.21
15,C15U G17U,0.415
16,C15U U79C,0.849
17,C15U U79A,1.11
18,C15G G52A,0.807
19,C15G C62U,0.665
20,C14U C64G,1.24
21,C14A C86G,0.378
22,C14A C86U,0.9
23,C15A G28A,0.136
24,C14G C84A,0.519

row,Variant,self-cleavage
1,C14G C84G,0.128
2,C14A C21U,0.151
3,C14A C64A,0.793
4,C15U G29A,0.154
5,C15U G29U,0.0594
6,A16C A70C,0.731
7,C14A G34C,0.151
8,C15U C30G,0.0707
9,C14A C22A,0.0692
10,C15U A45C,0.277
11,C15U C36A,0.208
12,C15U C24U,0.717
13,C15A C61U,0.752
14,C15A A56U,0.743
15,C15G G34U,0.19
16,C14U C75G,0.353
17,A16C C48A,0.987
18,C15U A78C,0.166
19,C15U C49U,0.997
20,C15A G73U,0.095
21,C14U G31A,0.475
22,C14A U20A,0
23,C15A A16C,0.415
24,C13U U65G,0.895

row,Variant,self-cleavage
1,C13U U65C,0.604
2,A16C A43G,0.138
3,A16C A42C,0.192
4,C14A C58G,0.762
5,C14U G67C,0.929
6,C14A C57A,0.745
7,C14A U27G,0.895
8,C15A C49A,0.974
9,C14A G17U,0.199
10,C14A A45C,0.199
11,C15A C63G,0.539
12,C15G U47A,0.723
13,C14A G59A,0.762
14,C14U G39U,0.895
15,C14U C18A,0
16,C14G C58G,0.712
17,C14U C62A,1.06
18,C15G A78U,0.375
19,C15G A78C,0
20,C14A G74U,0.281
21,C14A G74A,0.182
22,C14U G80A,0.486
23,A16C C19U,0.266
24,C14G C63A,0.755

row,Variant,self-cleavage
1,C15G G35A,0.196
2,C15G G35C,0.0791
3,C15U C64A,0.636
4,C14A C36A,0
5,C15A U37C,0.665
6,C15A G31U,0.0339
7,C15A G40U,0.352
8,C15A G40C,0.0875
9,C14A C63G,0.935
10,C15G G81U,0.297
11,C14U C44A,1.01
12,C15A G25A,0.0504
13,C14A U69C,0.95
14,C14A C48G,0.969
15,C14A C48A,0.485
16,C13U U69C,0.88
17,C15U G73C,0.429
18,C15U G73A,0.302
19,C15G U46A,0.399
20,C15U A16G,1.05
21,C15U A16C,1.33
22,C14G G28A,0.0415
23,C14G G34A,0
24,C14U C22U,0.935

row,Variant,self-cleavage
1,C14U A83C,0.499
2,C15U A77C,0.185
3,C14G U60C,0.443
4,C14A C41A,0.734
5,C14A C41G,0.554
6,C15A G39A,0.095
7,C14A C75U,0
8,C14U A77G,1.31
9,C15U A83U,0.26
10,C15U A83G,0.45
11,C14U G81U,0.729
12,C14G G17A,0.123
13,C15G G54U,0.59
14,C14U G76A,1.49
15,C15A C24G,0.032
16,C14U C41G,1.06
17,C14U C41A,1.06
18,C15U G52C,1.03
19,C15U G52U,1.21
20,C14U C84U,0.845
21,C14G C30U,0.0396
22,C14A G39C,0.0615
23,C15U G53A,0.912
24,C14U A45U,0.892

row,Variant,self-cleavage
1,C14G U46C,0.511
2,C14G A87G,0.683
3,C14U G34A,0.17
4,C15G A83G,0.185
5,C14G U69A,0.767
6,C14G G53C,0.727
7,C14A A87U,0.623
8,C15G C32U,0.437
9,C15A C48A,0.597
10,C15U G28A,0.0692
11,C15U C85U,0.906
12,C15U C85A,0.962
13,C15A G67C,0.782
14,C15U U72G,0.665
15,C14U G52U,1.04
16,C15A C33A,0.256
17,C15G G76U,0.831
18,C15G G39U,0.128
19,C15A A43U,0.212
20,C15A A45U,0.475
21,C15A U46G,0.383
22,C14U C36G,0.322
23,C15A G52U,0.844
24,C15A U79G,0.831

row,Variant,self-cleavage
1,C14U U79G,0.89
2,C15A C84U,0.665
3,C15G U23C,0.332
4,C15G U23A,0.68
5,C14U G73U,0.309
6,C15A A70C,0.554
7,C14A G31U,0.148
8,C14A G31A,0.121
9,C14G C66U,0.831
10,C15A G80A,0.831
11,C15G G53A,0.353
12,C15U G31C,0.208
13,C15U G31U,0.248
14,C14U C26U,1.07
15,C15U A43G,0.138
16,C15U C19U,0.0767
17,C15U C19G,0.0997
18,C14U U23A,1.04
19,C14G G38C,0.142
20,C15A C18U,0.295
21,C15G U37C,0.875
22,C15G U37G,0
23,C15G U37A,0
24,C14A G29A,0.115

row,Variant,self-cleavage
1,C14A G29C,0.0302
2,A16C A78U,0.256
3,A16C A78C,0.166
4,C15U G34U,0.293
5,C15U G34C,0.268
6,C15U G54A,0.776
7,C15U G54C,1
8,C14U C24A,0.76
9,C14U C24G,0.121
10,C15G C84A,0.519
11,C14G C36G,0.237
12,C14U A51G,0.898
13,C14A G76U,1.27
14,C14A G54U,0.628
15,C14G C62A,0.437
16,C14G C62U,0.554
17,C14A A56U,0.688
18,C14A C30G,0
19,C14A C30A,0.104
20,C15G U60G,0.712
21,C15G G82U,0.229
22,C15G C85U,0.453
23,C15G C85G,0.196
24,C14U G40A,1.17

row,Variant,self-cleavage
1,C14U G40U,0.724
2,C14G C32U,0.196
3,C15A C36A,0.0692
4,C15A C36U,0.253
5,C13U U79C,0.103
6,C13U U79G,0.0519
7,C15A G35A,0.405
8,C15A G35C,0.138
9,C14G G80C,0.0723
10,C15A G76C,0.767
11,C15G G28U,0.0437
12,C14G C44A,0.128
13,C15G C19G,0
14,C14G C22U,0.306
15,C14G A51U,0.791
16,C15U G55A,0.889
17,C15U G55C,0.895
18,C14A C15U,0.192
19,C15U U69G,0.858
20,C15G G74U,0.0875
21,C15G G40A,0.762
22,C15G G40U,0.354
23,C15G C63G,0.475
24,C15G C63U,0.394

row,Variant,self-cleavage
1,C15A G82C,0.415
2,C15A G82A,0.369
3,C14G G35A,0.199
4,C14G G35U,0
5,C14G G35C,0
6,A16C C21A,0.0437
7,A16C C21U,0.199
8,A16C C21G,0.119
9,C14A G68A,0.811
10,C15A U23G,0.185
11,C15A U23A,0.604
12,C14A G82U,0.665
13,A16C C22G,0.0426
14,C15G C41G,0.289
15,C15G A87U,0.475
16,C14U U72G,0.598
17,C14U U72A,0.745
18,C14G C61A,0.88
19,C14A U23A,0.575
20,C14A U37C,0.504
21,C14G C26U,1.18
22,C15A C58A,0.332
23,C15A U69G,0.492
24,C15A U69A,0.506

row,Variant,self-cleavage
1,C14G G67U,0.594
2,C15U G39C,0.0639
3,C15U G39A,0.151
4,C14G C24U,0.403
5,C14G A42G,0
6,C14G A42U,0.252
7,C15A C26A,0.529
8,C15A C26G,0.415
9,C14U U47A,0.906
10,C15U C18U,0.44
11,C14G G40U,0.0594
12,C15A U27G,0.653
13,C15G C24A,0.482
14,C14A U47G,0.519
15,C14A U47C,0.415
16,C15G C86G,0.317
17,C15G C22G,0.119
18,C15G C22A,0.0504
19,C14G U65A,0.65
20,C14G U65C,0.8
21,C14U G29U,0.0739
22,C15A U60G,0.731
23,C15U C61G,0.898
24,C14U U46G,0.875

row,Variant,self-cleavage
1,C15A G68U,0.309
2,C14G C41A,0.776
3,C15G A43G,0.237
4,C14G U79G,0
5,C14U C49G,0.831
6,C14A G25U,0.0652
7,C14A G25C,0.201
8,C15G U69C,0.65
9,C14A C61A,0.878
10,C14A G28C,0.142
11,C15G U20A,0.128
12,C14A A83G,0.475
13,A16C A87G,0.769
14,C14A A16G,0.776
15,C15U C21G,0.0898
16,C14G G31C,0.145
17,C14G G73U,0.0755
18,C14G C85U,1.31
19,C14A C44A,0.246
20,C14A C85A,0.623
21,C14A C66G,0.57
22,C14A C66A,0.578
